Measured values as given in publication PMC6620310, “A ubiquitin-like domain is required for stabilizing the N-terminal ATPase module of human SMCHD1” (Communications Biology, 2019).
Where a chain is given by its changes, count along the chain named. Names and notes keep the numbering of the source.

B1: SMCHD1(24–580/E147A), seleno-methionine-labeled (domain or fragment, human, UniProt A6NHR9 24-580, looked up)
chain: GHRTVYLFDRREKESELGDRPLQVGERSDYAGFRACVCQTLGISPEEKFVITTTSRKEITCDNFDETVKDGVTLYLLQSVNQLLLTATKERIDFLPHYDTLVKSGMYEYYASEGQNPLPFALAALIDNSLSATSRNIGVRRIQIKLLFDETQGKPAVAVIDNGRGMTSKQLNNWAVYRLSKFTRQGDFESDHSGYVRPVPVPRSLNSDISYFGVGGKQAVFFVGQSARMISKPADSQDVHELVLSKEDFEKKEKNKEAIYSGYIRNRKPSDSVHITNDDERFLHHLIIEEKEKDSFTAVVITGVQPEHIQYLKNYFHLWTRQLAHIYHYYIHGPKGNEIRTSKEVEPFNNIDIEISMFEKGKVPKIVNLREIQDDMQTLYVNTAADSFEFKAHVEGDGVVEGIIRYHPFLYDRETYPDDPCFPSKLKDEDDEDDCFILEKAARGKRPIFECFWNGRLIPYTSVEDFDWCTPPKKRGLAPIECYNRISGALFTNDKFQVSTNKLTFMDLELKLKDKNTLFTRILNGQEQRMKIDREFALWLKDCHEKYDKQIKFTLFK
modifications: selenomethionine substituted for methionine
notes: Crystallised as a homodimer with one ATP per monomer; two homodimers in the asymmetric unit; also called SMCHD1 E147A; source: E. coli B834(DE3), purified (glutathione resin, TEV cleavage, Superdex200 with Mg2+/ATP, MonoQ)
B2: SMCHD1(24–580) Q345R (domain or fragment, human, UniProt A6NHR9 24-580, looked up)
chain: B1 chain with A124E, Q322R
notes: SMCHD1, human, residues 24-580 with the arhinia variant Q345R; PDB 6MW7 holds the same limits with E147A; Human disease variant (arhinia); also called p.Q345R; source: E. coli Rosetta2(DE3), purified (Glutathione 4B Sepharose, TEV cleavage, Superdex200)
B3: SMCHD1(24–580) H348R (domain or fragment, human, UniProt A6NHR9 24-580, looked up)
chain: B1 chain with A124E, H325R
notes: SMCHD1, human, residues 24-580 with the arhinia variant H348R; PDB 6MW7 holds the same limits with E147A; Human disease variant (arhinia); also called p.H348R; source: E. coli Rosetta2(DE3), purified (Glutathione 4B Sepharose, TEV cleavage, Superdex200)
B4: SMCHD1(24–580) S135C (domain or fragment, human, UniProt A6NHR9 24-580, looked up)
chain: B1 chain with S112C, A124E
notes: SMCHD1, human, residues 24-580 with the arhinia variant S135C; PDB 6MW7 holds the same limits with E147A; Human disease variant (arhinia); also called p.S135C; source: E. coli Rosetta2(DE3), purified (Glutathione 4B Sepharose, TEV cleavage, Superdex200)
B5: SMCHD1(24–580) E473G (domain or fragment, human, UniProt A6NHR9 24-580, looked up)
chain: B1 chain with A124E, E450G
notes: SMCHD1, human, residues 24-580 with the arhinia variant E473G; PDB 6MW7 holds the same limits with E147A; Human disease variant (arhinia); also called p.E473G; source: E. coli Rosetta2(DE3), purified (Glutathione 4B Sepharose, TEV cleavage, Superdex200)
B6: SMCHD1(24–580) N139H (domain or fragment, human, UniProt A6NHR9 24-580, looked up)
chain: B1 chain with N116H, A124E
notes: SMCHD1, human, residues 24-580 with the arhinia variant N139H; PDB 6MW7 holds the same limits with E147A; Human disease variant (arhinia); also called p.N139H; source: E. coli Rosetta2(DE3), purified (Glutathione 4B Sepharose, TEV cleavage, Superdex200)
B7: SMCHD1(24–580) E473Q (domain or fragment, human, UniProt A6NHR9 24-580, looked up)
chain: B1 chain with A124E, E450Q
notes: SMCHD1, human, residues 24-580 with the arhinia variant E473Q; PDB 6MW7 holds the same limits with E147A; Human disease variant (arhinia); also called p.E473Q; source: E. coli Rosetta2(DE3), purified (Glutathione 4B Sepharose, TEV cleavage, Superdex200)
B8: SMCHD1(24–580) G137E (domain or fragment, human, UniProt A6NHR9 24-580, looked up)
chain: B1 chain with G114E, A124E
notes: SMCHD1, human, residues 24-580 with the variant G137E (implicated in both arhinia and FSHD2); PDB 6MW7 holds the same limits with E147A; Human disease variant (arhinia and FSHD2); also called p.G137E; source: E. coli Rosetta2(DE3), purified (Glutathione 4B Sepharose, TEV cleavage, Superdex200)
B9: SMCHD1(24–580) T523K (domain or fragment, human, UniProt A6NHR9 24-580, looked up)
chain: B1 chain with A124E, T500K
notes: SMCHD1, human, residues 24-580 with the arhinia variant T523K; PDB 6MW7 holds the same limits with E147A; Human disease variant (arhinia); also called p.T523K; source: E. coli Rosetta2(DE3), purified (Glutathione 4B Sepharose, TEV cleavage, Superdex200)

Target: the molecule itself
Test: crystal structure; seleno-methionine protein at 8.5 mg/ml with 5 mM Mg2+/ATP, sitting drop; SAD phasing, 2.2 Å

Binding result, binds:
B1

Target: the molecule itself
Test: cross-linking; glutaraldehyde (final 0.0125%), protein at 2 mg/mL in 20 mM HEPES pH 7.5, 100 mM NaCl, 10% glycerol with 5 mM MgCl2 and 5 mM ATP, 40 min at room temperature, diluted 6.25-fold; SDS-PAGE

Binding result, binds:
B2

Target: the molecule itself
Test: native gel or EMSA; blue-native PAGE, 4–16% Bis-Tris; 2.2 µg/µl protein incubated with 5 mM MgCl2 and ATP 30 min on ice; 1 mM MgCl2 and 1 mM ATP in the running buffers; monomer and dimer bands quantified

Binding result, binds:
B3
B4
B5
B6
B7
B8
B9
